Consider 125 sequences from the supplement of paper PMC9112550, “Optimization of the antimicrobial peptide Bac7 by deep mutational scanning” (BMC Biology, 2022).

The subject of the series is Escherichia coli TOP10. The experiment in a line: shrunken log2 fold change of peptide-encoding DNA abundance (4.5 h post-induction vs induction); higher = less antimicrobial activity (less host growth inhibition). The following applies: time post-induction: 4.5 h; library: site-saturation at positions 5, 18, 19, 20.
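Also: peptides expressed intracellularly from a pBAD plasmid library in pooled LB shake-flask culture, induced with 0.3% L-arabinose, DNA abundance read by NGS, three biological replicates, DESeq2 with apeglm shrinkage.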

With RRIRCRPPRLPRPRPRPWRYPRP, the “shrunken log2 fold change” value is 0.0621.
Under RRIRRRPPRLPRPRPRPCVHPRP stands -0.0733.
As to RRIRARPPRLPRPRPRPLFTPRP, the “shrunken log2 fold change” value came to 0.0936.
Under RRIRTRPPRLPRPRPRPVSSPRP stands 0.651; under RRIRCRPPRLPRPRPRPRNWPRP, 0.366.
In the case of RRIRNRPPRLPRPRPRPSTWPRP it was -0.332; in that of RRIRCRPPRLPRPRPRPIAIPRP, -0.443; in that of RRIRARPPRLPRPRPRPFMYPRP, -0.225.
As to RRIRNRPPRLPRPRPRPCVMPRP, the “shrunken log2 fold change” value is 0.0192.
In the case of RRIRIRPPRLPRPRPRPTLEPRP it was 2.35; in that of RRIRHRPPRLPRPRPRPAHTPRP, -0.199; in that of RRIRPRPPRLPRPRPRPSNCPRP, -0.909.
Under RRIRNRPPRLPRPRPRPEIMPRP stands 0.0538; under RRIRHRPPRLPRPRPRPLDLPRP, 0.441.
Under RRIRPRPPRLPRPRPRPSTLPRP stands -0.139; under RRIRERPPRLPRPRPRPGMCPRP, 0.248.
Take RRIRRRPPRLPRPRPRPYGYPRP: the “shrunken log2 fold change” value turned out to be 0.0179.
In the case of RRIRLRPPRLPRPRPRPIQFPRP it was -0.0198.
Under RRIRVRPPRLPRPRPRPAGKPRP stands -0.308; under RRIRSRPPRLPRPRPRPNSNPRP, -0.857.
For the sequence RRIRDRPPRLPRPRPRPDYFPRP, the “shrunken log2 fold change” value was -0.052.
Under RRIRQRPPRLPRPRPRPCVLPRP stands -0.298; under RRIRPRPPRLPRPRPRPQELPRP, 0.126.
Consider RRIRDRPPRLPRPRPRPRPAPRP, for which the “shrunken log2 fold change” value is 0.966.
In the case of RRIRPRPPRLPRPRPRPGTPPRP it was 0.0946; in that of RRIRQRPPRLPRPRPRPSRWPRP, -0.0126; in that of RRIRMRPPRLPRPRPRPHIPPRP, -0.289.
In the case of RRIRPRPPRLPRPRPRPKCPPRP it was 0.131; in that of RRIRERPPRLPRPRPRPMTKPRP, -0.0224; in that of RRIRGRPPRLPRPRPRPAHVPRP, 0.586.
Under RRIRRRPPRLPRPRPRPNTQPRP stands 0.0214; under RRIRSRPPRLPRPRPRPWDWPRP, 0.676; under RRIRRRPPRLPRPRPRPWALPRP, -0.0259.
Take RRIRTRPPRLPRPRPRPTWSPRP: the “shrunken log2 fold change” value was determined as 0.256.
Under RRIRPRPPRLPRPRPRPHVHPRP stands -0.254.
In the case of RRIRFRPPRLPRPRPRPDARPRP it was -0.0768; in that of RRIRNRPPRLPRPRPRPSIYPRP, -0.449.
In the case of RRIRTRPPRLPRPRPRPYFIPRP it was -0.872.
For RRIRNRPPRLPRPRPRPNHKPRP, the “shrunken log2 fold change” value is -0.688.
Under RRIRERPPRLPRPRPRPFTCPRP stands -0.00783; under RRIRPRPPRLPRPRPRPCFMPRP, -0.269; under RRIRMRPPRLPRPRPRPVQQPRP, 0.113.
As for RRIRERPPRLPRPRPRPRPMPRP, the “shrunken log2 fold change” value is -0.0942.
Regarding RRIRGRPPRLPRPRPRPRMLPRP, the “shrunken log2 fold change” value was 0.356.
Under RRIRLRPPRLPRPRPRPRSMPRP stands -0.326; under RRIRERPPRLPRPRPRPEGHPRP, 0.11; under RRIRSRPPRLPRPRPRPHYHPRP, -0.696.
In the case of RRIRCRPPRLPRPRPRPPDVPRP it was 0.156; in that of RRIRHRPPRLPRPRPRPESPPRP, 0.0722.
In the case of RRIRGRPPRLPRPRPRPTMGPRP it was 0.875; in that of RRIRQRPPRLPRPRPRPPINPRP, -0.00134; in that of RRIRARPPRLPRPRPRPMVSPRP, 0.124.
Take RRIRMRPPRLPRPRPRPFRRPRP: the “shrunken log2 fold change” value is -0.117.
Under RRIRTRPPRLPRPRPRPVWQPRP stands 0.256; under RRIRSRPPRLPRPRPRPMMEPRP, 0.0765; under RRIRFRPPRLPRPRPRPPNKPRP, 0.1.
Under RRIRSRPPRLPRPRPRPYWNPRP stands 0.503.
In the case of RRIRIRPPRLPRPRPRPMFEPRP it was -0.0768.
RRIRIRPPRLPRPRPRPDGCPRP: the “shrunken log2 fold change” value is -0.229.
For RRIRDRPPRLPRPRPRPTSMPRP, the “shrunken log2 fold change” value was determined as 0.104.
Regarding RRIRWRPPRLPRPRPRPPIVPRP, the “shrunken log2 fold change” value is 0.19.
In the case of RRIRCRPPRLPRPRPRPEAWPRP it was 0.976; in that of RRIRCRPPRLPRPRPRPFYQPRP, -0.163; in that of RRIRWRPPRLPRPRPRPYHKPRP, -0.118.
Turning to RRIRYRPPRLPRPRPRPDSSPRP, the “shrunken log2 fold change” value was -0.0431.
In the case of RRIRNRPPRLPRPRPRPLELPRP it was -0.0825.
Take RRIRGRPPRLPRPRPRPVRWPRP: the “shrunken log2 fold change” value was found to be 0.965.
In the case of RRIRYRPPRLPRPRPRPKNFPRP it was -0.663.
Under RRIRERPPRLPRPRPRPEVPPRP stands -0.00233; under RRIRFRPPRLPRPRPRPYGTPRP, -0.81; under RRIRLRPPRLPRPRPRPNCKPRP, -0.143.
In the case of RRIRARPPRLPRPRPRPADWPRP it was 0.984.
With RRIRGRPPRLPRPRPRPTMFPRP, the “shrunken log2 fold change” value was 0.521.
In the case of RRIRYRPPRLPRPRPRPCCNPRP it was 0.00367; in that of RRIRNRPPRLPRPRPRPIQFPRP, -0.178; in that of RRIRLRPPRLPRPRPRPPNLPRP, -0.321.
Under RRIRRRPPRLPRPRPRPFWQPRP stands 0.0221; under RRIRGRPPRLPRPRPRPKPIPRP, 0.177; under RRIRWRPPRLPRPRPRPFTWPRP, -0.119.
Under RRIRIRPPRLPRPRPRPDHAPRP stands -0.0379; under RRIRARPPRLPRPRPRPPVLPRP, 0.214; under RRIRLRPPRLPRPRPRPHTIPRP, -0.165.
In the case of RRIRHRPPRLPRPRPRPQRIPRP, the “shrunken log2 fold change” value was -0.00331.
In the case of RRIRHRPPRLPRPRPRPPHSPRP it was 0.0314.
As to RRIRERPPRLPRPRPRPEVVPRP, the “shrunken log2 fold change” value came to 0.122.
Under RRIRARPPRLPRPRPRPRNAPRP stands 0.485.
Regarding RRIRYRPPRLPRPRPRPCTQPRP, the “shrunken log2 fold change” value is -1.32.
In the case of RRIRARPPRLPRPRPRPWWSPRP it was 0.271.
Under RRIRTRPPRLPRPRPRPFSIPRP stands -0.284; under RRIRDRPPRLPRPRPRPPRWPRP, 0.331.
Under RRIRSRPPRLPRPRPRPQTMPRP stands -0.35.
For the sequence RRIRYRPPRLPRPRPRPMGVPRP, the “shrunken log2 fold change” value was -0.762.
In the case of RRIRTRPPRLPRPRPRPCWIPRP it was -0.1; in that of RRIRVRPPRLPRPRPRPGIEPRP, -0.28; in that of RRIRDRPPRLPRPRPRPFHVPRP, -0.0179.
Consider RRIRCRPPRLPRPRPRPIYFPRP, for which the “shrunken log2 fold change” value was -0.131.
In the case of RRIRYRPPRLPRPRPRPNFFPRP it was -0.074; in that of RRIRVRPPRLPRPRPRPVHLPRP, 0.0586; in that of RRIRYRPPRLPRPRPRPCPLPRP, -1.91.
In the case of RRIRPRPPRLPRPRPRPPNLPRP it was 0.0664.
Under RRIRNRPPRLPRPRPRPWCQPRP stands -0.0618; under RRIRARPPRLPRPRPRPKECPRP, 0.0495.
In the case of RRIRIRPPRLPRPRPRPQSGPRP, the “shrunken log2 fold change” value turned out to be 0.00632.
Turning to RRIRDRPPRLPRPRPRPTRGPRP, the “shrunken log2 fold change” value was determined as 0.67.
Consider RRIRMRPPRLPRPRPRPLGDPRP, for which the “shrunken log2 fold change” value came to 0.364.
In the case of RRIRIRPPRLPRPRPRPHQYPRP it was -1.31; in that of RRIRYRPPRLPRPRPRPQCVPRP, -0.127; in that of RRIRGRPPRLPRPRPRPCKRPRP, 0.0886.
Consider RRIRCRPPRLPRPRPRPHHHPRP, for which the “shrunken log2 fold change” value was -0.815.
In the case of RRIRQRPPRLPRPRPRPARDPRP it was 0.0373; in that of RRIRVRPPRLPRPRPRPNYQPRP, -0.699; in that of RRIRYRPPRLPRPRPRPQEVPRP, 0.013.
In the case of RRIRYRPPRLPRPRPRPDPTPRP it was -0.435; in that of RRIRERPPRLPRPRPRPRAQPRP, 0.22; in that of RRIRARPPRLPRPRPRPIMAPRP, 0.0923.
As to RRIRSRPPRLPRPRPRPYVSPRP, the “shrunken log2 fold change” value is -0.136.
With RRIRSRPPRLPRPRPRPPLHPRP, the “shrunken log2 fold change” value is -0.00448.
In the case of RRIRERPPRLPRPRPRPGYMPRP it was -0.172; in that of RRIRDRPPRLPRPRPRPMMTPRP, 0.395.
In the case of RRIRLRPPRLPRPRPRPQTLPRP it was -0.0114; in that of RRIRGRPPRLPRPRPRPYWPPRP, 0.0961.
With RRIRVRPPRLPRPRPRPQREPRP, the “shrunken log2 fold change” value is -0.0361.
In the case of RRIRFRPPRLPRPRPRPWAKPRP it was -0.0227; in that of RRIRDRPPRLPRPRPRPVQTPRP, -0.0375; in that of RRIRGRPPRLPRPRPRPARWPRP, 0.998.
